{"source": "patent US8344120B2", "about": "“Nucleic acid molecules encoding rage fusion proteins” (TransTech Pharma, Inc., priority 2006, dated 2013)", "molecules": {"B1": {"name": "TTP-4000: four domain RAGE fusion protein: human RAGE N-terminal sequence (to position 251) linked to human IgG Fc (γ1) without hinge; SEQ ID NO: 34/56 (protein)", "chain": "QNITARIGEPLVLKCKGAPKKPPQRLEWKLNTGRTEAWKVLSPQGGGPWDSVARVLPNGSLFLPAVGIQDEGIFRCQAMNRNGKETKSNYRVRVYQIPGKPEIVDSASELTAGVPNKVGTCVSEGSYPAGTLSWHLDGKPLVPNEKGVSVKEQTRRHPETGLFTLQSELMVTPARGGDPRPTFSCSFSPGLPRHRALRTAPIQPRVWEPVPLEEVQLVVEPEGGAVAPPSVFLFPPKPKDTLMISRTPEVTCVVVDVSHEDPEVKFNWYVDGVEVHNAKTKPREEQYNSTYRVVSVLTVLHQDWLNGKEYKCKVSNKALPAPIEKTISKAKGQPREPQVYTLPPSRDELTKNQVSLTCLVKGFYPSDIAVEWESNGQPENNYKTTPPVLDSDGSFFLYSKLTVDKSRWQQGNVFSCSVMHEALHNHYTQKSLSLSPGK"}}, "key": {"[1]": {"biological_target": "T1, amyloid-beta (Abeta) (Homo sapiens, UniProt P05067)", "T1 construct": "Amyloid Beta (1-40) from Biosource; purchased Biosource", "T1 sequence (P05067 672-711 limits assumed)": "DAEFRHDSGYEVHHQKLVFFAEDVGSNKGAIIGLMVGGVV", "assay": "In vitro ligand binding ELISA, immobilized amyloid-beta", "conditions": "ligand 5 micrograms per well; fusion protein at increasing dilutions, 37° C. one hour", "protocol": "(§1) For example, the RAGE fusion protein may be used in a binding assay to identify potential RAGE ligands. In one example embodiment of such a binding assay, a known RAGE ligand may coated onto a solid substrate (e.g., Maxisorb plates) at a concentration of about 5 micrograms per well, where each well contains a total volume of about 100 microliters (4). The plates may be incubated at 4° C. overnight to allow the ligand to absorb or bind to the substrate. Alternatively, shorter incubation periods at higher temperature (e.g., room temperature) may be used. […] The RAGE fusion protein bound to the immobilized ligand may be detected in a variety of ways. […] The bound complex may be detected by adding the alkaline phosphatase substrate, para-nitrophenylphosphate (PNPP), and measuring conversion of PNPP to para-nitrophenol (PNP) as an increase in absorbance at 405 nm. […] In the absence of ligand (i.e., coating with only BSA) there was no increase in absorbance. […] Binding was detected by the addition of an immunodetection complex containing a monoclonal mouse anti-human IgG1 diluted 1:11,000 to a final assay concentration (FAC) of 21 ng/100 μL, a biotinylated goat anti-mouse IgG diluted 1:500, to a FAC of […], and an avidin-linked alkaline phosphatase. […]"}, "[2]": {"biological_target": "T2, S100b (S100) (Homo sapiens, UniProt P04271)", "T2 sequence (P04271 1-92)": "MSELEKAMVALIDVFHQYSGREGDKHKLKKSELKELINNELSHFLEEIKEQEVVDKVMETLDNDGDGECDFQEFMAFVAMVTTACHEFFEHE", "assay": "In vitro ligand binding ELISA, immobilized S100b", "conditions": "ligand 5 micrograms per well; fusion protein at increasing dilutions, 37° C. one hour", "protocol": "as §1"}, "[3]": {"assay": "Pharmacokinetic profile of TTP-4000 after IV injection", "type": "in vivo, monkeys", "conditions": "single IV bolus 5 mg/kg; once TTP-4000 has saturated its ligands; plasma ELISA", "protocol": "Following collection, the tubes were placed on wet ice (maximum 30 minutes) until centrifugation under refrigeration (at 2 to 8° C.) at 1500×g for 15 minutes. Each harvested plasma sample was then stored frozen (−70° C.±10° C.) until assayed for RAGE polypeptide using an ELISA at various time-points following the injection, as described in Example 6.\nIn FIG. 12 each curve represents a different animal under the same experimental conditions.\nInitially, 50 uL of the RAGE specific monoclonal antibody 1HB1011 at a concentration of 10 ug/mL in 1× PBS pH 7.3 is coated on plates via overnight incubation. When ready for use, plates are washed three times with 300 uL of 1× Imidazole-Tween wash buffer and blocked with 1% BSA. […] The samples are allowed to incubate at room temperature for one hour. After incubation, the plates are plates are washed three times. A Goat Anti-human IgG1 1 (Sigma A3312) AP conjugate in 1×PBS with 1% BSA is added and allowed to incubate at room temperature for 1 hour. The plates are washed three times. Color was elucidated with paranitrophenylphosphate."}, "[4]": {"tested_on": "Fc receptor", "assay": "Fc receptor activation: TNF-α secretion from THP-1 cells", "type": "cell-based", "excerpt": "Fc stimulation results in TNF-α secretion."}}, "data": [{"molecule": "B1", "values": [{"measurement": "binding to immobilized amyloid-beta (increase in absorbance at 405 nm)", "setting": "[1]", "result": "specifically interact"}, {"measurement": "binding to immobilized S100b (increase in absorbance at 405 nm)", "setting": "[2]", "result": "specifically interact"}, {"measurement": "terminal half-life", "setting": "[3]", "result": "greater than 300 hours"}, {"measurement": "stimulation of TNF-α release from cells", "setting": "[4]; conditions where human IgG stimulation of TNF-α release is detected", "result": "does not stimulate TNF-α release"}, {"measurement": "TNF generated", "setting": "[4]; well precoated with 10 ug/well heat aggregated protein, THP-1 cells, 24 hours", "result": "less than 2 ng/well"}]}]}
